Measured values from patent publication US20240209114A1 (JIANGSU HENGRUI PHARMACEUTICALS, published 2024).
Like-named read-outs stand apart in the source and are kept apart here.

Assays:
[1] = molecular target: T1, MASP2 in human serum (human, UniProt O00187 16-686); assay: cell-based or functional assay
[2] = molecular target: T1, MASP2 in human serum; assay: cell-based or functional assay; remark: listed apart in the source
[3] = molecular target: MASP2 in monkey serum (monkey); assay: cell-based or functional assay
[4] = molecular target: T2, Murine MASP2A (S632A) protein (murine, UniProt Q91WP0 16-685); assay: SPR (Biacore 8K), antibody captured on anti-human Fc chip, antigen as analyte
T2 sequence (Q91WP0 other isoform, or with tags, fused parts or gaps S632A S632A): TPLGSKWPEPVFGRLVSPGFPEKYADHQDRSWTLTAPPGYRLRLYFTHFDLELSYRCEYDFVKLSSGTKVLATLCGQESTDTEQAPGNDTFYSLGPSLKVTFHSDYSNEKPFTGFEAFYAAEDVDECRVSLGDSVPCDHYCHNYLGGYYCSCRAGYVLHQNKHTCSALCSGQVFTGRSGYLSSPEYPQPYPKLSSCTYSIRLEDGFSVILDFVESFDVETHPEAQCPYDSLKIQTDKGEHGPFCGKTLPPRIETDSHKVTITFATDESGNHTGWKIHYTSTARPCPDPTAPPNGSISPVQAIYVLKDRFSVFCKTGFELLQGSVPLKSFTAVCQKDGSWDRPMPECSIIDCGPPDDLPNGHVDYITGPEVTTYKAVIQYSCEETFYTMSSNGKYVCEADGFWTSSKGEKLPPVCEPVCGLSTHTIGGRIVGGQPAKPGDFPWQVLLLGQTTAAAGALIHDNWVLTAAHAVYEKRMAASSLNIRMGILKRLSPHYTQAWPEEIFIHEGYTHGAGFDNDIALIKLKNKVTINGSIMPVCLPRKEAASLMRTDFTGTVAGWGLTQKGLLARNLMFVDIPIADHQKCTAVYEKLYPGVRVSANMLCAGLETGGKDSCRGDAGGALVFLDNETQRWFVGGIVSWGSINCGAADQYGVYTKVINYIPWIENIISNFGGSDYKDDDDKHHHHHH
Method: (§1) The binding properties of the anti-MASP2 antibodies were determined by the method of Biacore. […] An anti-human Fc IgG capture chip was used to capture the antibodies, then antigens with different concentrations were used as a mobile phase for the determination, and finally curve fitting was performed according to a 1:1 mode to obtain affinity values.

[5] = molecular target: Monkey MASP2A (S633A) protein (monkey, UniProt O00187 16-686 (human entry)); assay: SPR (Biacore 8K), antibody captured on anti-human Fc chip, antigen as analyte, 1:1 fit
Sequence of Monkey MASP2A (S633A) protein (O00187 other isoform, or with tags, fused parts or gaps S633A S633A): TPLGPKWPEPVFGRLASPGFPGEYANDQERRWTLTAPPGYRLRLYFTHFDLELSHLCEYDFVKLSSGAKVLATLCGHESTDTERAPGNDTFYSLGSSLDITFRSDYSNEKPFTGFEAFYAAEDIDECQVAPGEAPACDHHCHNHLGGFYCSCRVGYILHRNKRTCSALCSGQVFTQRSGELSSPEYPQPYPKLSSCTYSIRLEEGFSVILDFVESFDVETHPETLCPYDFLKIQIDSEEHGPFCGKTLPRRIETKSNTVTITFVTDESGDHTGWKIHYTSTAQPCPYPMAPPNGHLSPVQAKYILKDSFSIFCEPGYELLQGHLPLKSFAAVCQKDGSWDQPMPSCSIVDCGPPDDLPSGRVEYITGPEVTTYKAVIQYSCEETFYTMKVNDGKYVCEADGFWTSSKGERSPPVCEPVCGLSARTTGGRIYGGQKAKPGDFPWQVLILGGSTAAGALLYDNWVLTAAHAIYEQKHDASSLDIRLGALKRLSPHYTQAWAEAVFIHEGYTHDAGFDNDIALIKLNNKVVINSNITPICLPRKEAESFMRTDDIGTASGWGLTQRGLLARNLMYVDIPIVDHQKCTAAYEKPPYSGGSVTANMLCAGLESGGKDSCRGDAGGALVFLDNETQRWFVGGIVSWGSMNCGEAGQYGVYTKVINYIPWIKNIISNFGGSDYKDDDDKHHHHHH
Method: as §1

[6] = molecular target: MASP2 in mouse serum (mouse, UniProt Q91WP0 20-685); assay: cell-based or functional assay
Sequence of MASP2 in mouse serum (Q91WP0 20-685 limits assumed): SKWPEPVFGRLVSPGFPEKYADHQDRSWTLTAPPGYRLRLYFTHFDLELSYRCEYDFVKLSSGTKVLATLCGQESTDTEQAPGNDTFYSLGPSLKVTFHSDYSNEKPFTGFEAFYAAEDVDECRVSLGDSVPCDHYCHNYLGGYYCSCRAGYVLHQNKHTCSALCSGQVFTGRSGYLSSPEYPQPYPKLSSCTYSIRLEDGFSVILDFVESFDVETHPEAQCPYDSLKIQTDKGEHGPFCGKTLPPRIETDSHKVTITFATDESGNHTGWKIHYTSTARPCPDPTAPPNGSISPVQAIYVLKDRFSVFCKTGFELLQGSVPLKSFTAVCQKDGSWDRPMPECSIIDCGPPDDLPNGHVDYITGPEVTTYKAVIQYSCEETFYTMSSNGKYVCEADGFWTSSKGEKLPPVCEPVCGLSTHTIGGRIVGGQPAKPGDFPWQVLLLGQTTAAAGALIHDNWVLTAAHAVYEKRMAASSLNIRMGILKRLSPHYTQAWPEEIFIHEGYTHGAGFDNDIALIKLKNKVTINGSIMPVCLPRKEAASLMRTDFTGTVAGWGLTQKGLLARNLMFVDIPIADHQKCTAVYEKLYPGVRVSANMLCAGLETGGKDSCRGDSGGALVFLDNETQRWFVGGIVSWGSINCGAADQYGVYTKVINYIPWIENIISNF

[7] = molecular target: T2, Murine MASP2A (S632A) protein; assay: SPR (Biacore 8K), antibody captured on anti-human Fc chip, antigen as analyte, 1:1 fit
Method: as §1

[8] = molecular target: T1, MASP2 in human serum; assay: cell-based or functional assay; remark: listed apart in the source
[9] = molecular target: T3, Human MASP2A (S633A) protein (human, UniProt O00187 16-686); assay: SPR (Biacore 8K), antibody captured on anti-human Fc chip, antigen as analyte, 1:1 fit
T3 construct: also called human enzymatic mutant human MASP2A (S633A)
T3 sequence (O00187 other isoform, or with tags, fused parts or gaps S633A S633A): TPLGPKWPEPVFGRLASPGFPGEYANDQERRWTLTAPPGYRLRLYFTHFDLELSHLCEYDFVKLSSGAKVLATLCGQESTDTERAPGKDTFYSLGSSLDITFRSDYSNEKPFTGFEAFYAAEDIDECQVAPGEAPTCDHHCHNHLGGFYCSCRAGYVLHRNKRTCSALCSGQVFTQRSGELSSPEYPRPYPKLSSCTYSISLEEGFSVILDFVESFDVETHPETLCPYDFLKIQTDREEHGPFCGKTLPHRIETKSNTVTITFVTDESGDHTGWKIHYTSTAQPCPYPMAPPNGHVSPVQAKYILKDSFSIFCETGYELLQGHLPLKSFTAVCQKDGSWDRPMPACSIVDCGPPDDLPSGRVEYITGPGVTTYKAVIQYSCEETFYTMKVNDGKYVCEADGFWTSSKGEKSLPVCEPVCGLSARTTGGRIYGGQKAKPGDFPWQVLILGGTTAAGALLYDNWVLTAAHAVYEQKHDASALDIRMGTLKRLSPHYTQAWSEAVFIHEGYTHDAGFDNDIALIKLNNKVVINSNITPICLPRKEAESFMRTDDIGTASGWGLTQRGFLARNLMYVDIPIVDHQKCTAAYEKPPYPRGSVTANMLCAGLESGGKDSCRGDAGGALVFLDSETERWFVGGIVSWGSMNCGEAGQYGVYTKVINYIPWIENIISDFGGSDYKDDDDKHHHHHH
Method: as §1

[10] = molecular target: T1, MASP2 in human serum; assay: cell-based or functional assay; remark: listed apart in the source

T1 sequence (O00187 16-686 limits assumed): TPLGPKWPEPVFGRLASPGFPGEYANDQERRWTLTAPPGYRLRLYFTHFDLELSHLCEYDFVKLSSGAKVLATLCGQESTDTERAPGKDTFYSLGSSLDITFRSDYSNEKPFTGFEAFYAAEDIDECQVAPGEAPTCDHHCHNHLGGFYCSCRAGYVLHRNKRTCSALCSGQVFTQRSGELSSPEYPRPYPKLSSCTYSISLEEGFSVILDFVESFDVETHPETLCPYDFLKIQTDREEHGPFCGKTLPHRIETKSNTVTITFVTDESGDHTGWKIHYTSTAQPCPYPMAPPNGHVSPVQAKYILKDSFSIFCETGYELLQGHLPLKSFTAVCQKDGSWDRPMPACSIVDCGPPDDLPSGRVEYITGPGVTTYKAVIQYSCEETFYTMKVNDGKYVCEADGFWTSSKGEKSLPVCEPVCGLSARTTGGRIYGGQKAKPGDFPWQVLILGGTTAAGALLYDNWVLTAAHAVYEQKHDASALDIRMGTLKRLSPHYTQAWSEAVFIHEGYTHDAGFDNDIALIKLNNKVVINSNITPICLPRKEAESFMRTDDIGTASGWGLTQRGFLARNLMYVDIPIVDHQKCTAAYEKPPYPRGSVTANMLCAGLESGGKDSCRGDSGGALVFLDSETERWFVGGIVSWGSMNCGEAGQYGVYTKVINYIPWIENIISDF

B1: 77H11 (H3L1) (antibody, human IgG4 S228P, kappa, V domains shown)
VH: EVQLQESGPGLVKPSQTLSLTCTVSGYSITSDYAWNWIRQPPGKGLEWIGYISYSGRTSYNPSLKSRVTISRDTSKNQFSLKLSSVTAADTAVYYCAVLYALDYWGQGTTVTVSS
VL: DIQMTQSPSSLSASVGDRVTITCKASQNVDTNVAWYQQKPGKVPKALIYSASYRYSGVPSRFSGSGSGTDFTLTISSLQPEDVATYYCQQYNSNPLTFGQGTKLEIKR
notes: Humanized 77H11, full-length human IgG4 (S228P); also called 77H1(H3L1); 77H1 (H3L1)
- IC50 (µg/mL), inhibition of the lectin pathway in 90% human serum (C4c deposition on mannan) [1]: 0.624 µg/mL
- 90% human serum IC50 (µg/mL), inhibition of the lectin pathway (C4c deposition on mannan) [2]: 0.97 µg/mL
- 90% monkey serum IC50 (µg/mL), inhibition of the lectin pathway (C4c deposition on mannan) [3]: 21.6 µg/mL
- binding result [4]: no binding
- Kd [5]: 140 pM
- koff [5]: 8.63e-05 s⁻¹
- kon [5]: 616000 M⁻¹ s⁻¹

B2: 77H11 (H2L2) (antibody, V domains shown)
VH: EVQLQESGPGLVKPSQTLSLTCTVSGYSITSDYAWNWIRQPPGKGLEWIGYISYSGRTSYNPSLKSRVTISVDTSKNQFSLKLSSVTAADTAVYYCAVLYALDYWGQGTTVTVSS
VL: DIQMTQSPSSLSASVGDRVTITCKASQNVDTNVAWYQQKPGKSPKALIYSASYRYSGVPSRFSGSGSGTDFTLTISSLQPEDVAEYYCQQYNSNPLTFGQGTKLEIK
- IC50 (µg/mL), inhibition of the lectin pathway in 90% human serum (C4c deposition on mannan) [1]: 1.58 µg/mL

B3: 77H11 (H4L2) (antibody, V domains shown)
VH: EVQLQESGPGLVKPSQTLSLTCTVSGYSITSDYAWNWIRQPPGNKLEWMGYISYSGRTSYNPSLKSRITISRDTSKNQFSLKLSSVTAADTAVYYCAVLYALDYWGQGTTVTVSS
VL: DIQMTQSPSSLSASVGDRVTITCKASQNVDTNVAWYQQKPGKSPKALIYSASYRYSGVPSRFSGSGSGTDFTLTISSLQPEDVAEYYCQQYNSNPLTFGQGTKLEIK
- IC50 (µg/mL), inhibition of the lectin pathway in 90% human serum (C4c deposition on mannan) [1]: 0.443 µg/mL

B4: 77H11 (H4L1) (antibody, V domains shown)
VH: EVQLQESGPGLVKPSQTLSLTCTVSGYSITSDYAWNWIRQPPGNKLEWMGYISYSGRTSYNPSLKSRITISRDTSKNQFSLKLSSVTAADTAVYYCAVLYALDYWGQGTTVTVSS
VL: DIQMTQSPSSLSASVGDRVTITCKASQNVDTNVAWYQQKPGKVPKALIYSASYRYSGVPSRFSGSGSGTDFTLTISSLQPEDVATYYCQQYNSNPLTFGQGTKLEIK
- IC50 (µg/mL), inhibition of the lectin pathway in 90% human serum (C4c deposition on mannan) [1]: 0.67 µg/mL

B5: 77H11 (H3L2) (antibody, V domains shown)
VH: EVQLQESGPGLVKPSQTLSLTCTVSGYSITSDYAWNWIRQPPGKGLEWIGYISYSGRTSYNPSLKSRVTISRDTSKNQFSLKLSSVTAADTAVYYCAVLYALDYWGQGTTVTVSS
VL: DIQMTQSPSSLSASVGDRVTITCKASQNVDTNVAWYQQKPGKSPKALIYSASYRYSGVPSRFSGSGSGTDFTLTISSLQPEDVAEYYCQQYNSNPLTFGQGTKLEIK
- IC50 (µg/mL), inhibition of the lectin pathway in 90% human serum (C4c deposition on mannan) [1]: 0.454 µg/mL

B6: OMS721 (antibody, human IgG4 S228P, lambda, V domains shown)
VH: QVTLKESGPVLVKPTETLTLTCTVSGFSLSRGKMGVSWIRQPPGKALEWLAHIFSSDEKSYRTSLKSRLTISKDTSKNQVVLTMTNMDPVDTATYYCARIRRGGIDYWGQGTLVTVSS
VL: QPVLTQPPSLSVSPGQTASITCSGEKLGDKYAYWYQQKPGQSPVLVMYQDKQRPSGIPERFSGSNSGNTATLTISGTQAMDEADYYCQAWDSSTAVFGGGTKLTVLG
notes: Positive control, synthesized according to WO2012151481A; also called narsoplimab; positive control antibody
- 90% monkey serum IC50 (µg/mL), inhibition of the lectin pathway (C4c deposition on mannan) [3]: 26.6 µg/mL
- 90% mouse serum IC50 (µg/mL), inhibition of the lectin pathway (C4c deposition on mannan) [6]: 3.74 µg/mL
- Kd [7]: 233 pM

B7: 29C1 (antibody, V domains shown)
VH: EVQLVESGGGLVKPGGSLKLSCAASGFTFSRFALSWVRQTPEKRLEWVAAVSRGGDYTYYPDSMKGRFTISRDNAMNTLYLQMSSLSSEDTAMYYCARHLYGYGHYYAMDYWGQGTSVTVSS
VL: DIVMTQSHKFMSTSVGDRVSITCKASQDVNTAVAWYQQKPGQSPKLLIYSASYRYTGVPDRFTGSGSGTDFTFTISSVQAEDLAVYYCQQHYSTPYTFGGGTKLEIK
- IC50 (µg/mL), inhibition of the lectin pathway in 1% human serum (C4c deposition on mannan) [8]: 0.086 µg/mL

B8: 29C1 (H1L1) (antibody, human IgG4 S228P, kappa, V domains shown)
VH: EVQLVESGGGLVKPGGSLRLSCAASGFTFSRFALSWVRQAPGKGLEWVSAVSRGGDYTYYPDSMKGRFTISRDNAKNSLYLQMNSLRAEDTAVYYCARHLYGYGHYYAMDYWGQGTTVTVSS
VL: DIQMTQSPSSLSASVGDRVTITCKASQDVNTAVAWYQQKPGKAPKLLIYSASYRYTGVPSRFSGSGSGTDFTFTISSLQPEDIATYYCQQHYSTPYTFGGGTKVEIKR
notes: Humanized 29C1, full-length human IgG4 (S228P); also called 29C1 (HIL1)
- IC50 (µg/mL), inhibition of the lectin pathway in 90% human serum (C4c deposition on mannan) [1]: 0.477 µg/mL
- 90% human serum IC50 (µg/mL), inhibition of the lectin pathway (C4c deposition on mannan) [2]: 1.18 µg/mL
- 90% monkey serum IC50 (µg/mL), inhibition of the lectin pathway (C4c deposition on mannan) [3]: 15.3 µg/mL
- binding result [4]: no binding
- Kd [9]: 71.6 pM
- koff [9]: 2.94e-05 s⁻¹
- kon [9]: 410000 M⁻¹ s⁻¹
- Kd [5]: 193 pM
- koff [5]: 6.83e-05 s⁻¹
- kon [5]: 354000 M⁻¹ s⁻¹

B9: 29C1 (H3L2) (antibody, V domains shown)
VH: EVQLVESGGGLVKPGGSLRLSCAASGFTFSRFALSWVRQAPGKGLEWVAAVSRGGDYTYYPDSMKGRFTISRDNAKNSLYLQMNSLRAEDTAVYYCARHLYGYGHYYAMDYWGQGTTVTVSS
VL: DIVMTQSPSSLSASVGDRVTITCKASQDVNTAVAWYQQKPGKSPKLLIYSASYRYTGVPSRFSGSGSGTDFTFTISSLQPEDIATYYCQQHYSTPYTFGGGTKVEIK
- IC50 (µg/mL), inhibition of the lectin pathway in 90% human serum (C4c deposition on mannan) [1]: 0.515 µg/mL

B10: 29C1 (H2L1) (antibody, V domains shown)
VH: EVQLVESGGGLVKPGGSLRLSCAASGFTFSRFALSWVRQAPGKGLEWVAAVSRGGDYTYYPDSMKGRFTISRDNAKNSLYLQMNSLRAEDTAVYYCARHLYGYGHYYAMDYWGQGTTVTVSS
VL: DIQMTQSPSSLSASVGDRVTITCKASQDVNTAVAWYQQKPGKAPKLLIYSASYRYTGVPSRFSGSGSGTDFTFTISSLQPEDIATYYCQQHYSTPYTFGGGTKVEIK
- IC50 (µg/mL), inhibition of the lectin pathway in 90% human serum (C4c deposition on mannan) [1]: 0.471 µg/mL

B11: 29C1 (H2L2) (antibody, V domains shown)
VH: EVQLVESGGGLVKPGGSLRLSCAASGFTFSRFALSWVRQAPGKGLEWVAAVSRGGDYTYYPDSMKGRFTISRDNAKNSLYLQMNSLRAEDTAVYYCARHLYGYGHYYAMDYWGQGTTVTVSS
VL: DIVMTQSPSSLSASVGDRVTITCKASQDVNTAVAWYQQKPGKSPKLLIYSASYRYTGVPSRFSGSGSGTDFTFTISSLQPEDIATYYCQQHYSTPYTFGGGTKVEIK
- IC50 (µg/mL), inhibition of the lectin pathway in 90% human serum (C4c deposition on mannan) [1]: 0.555 µg/mL

B12: 29C1 (H3L1) (antibody, V domains shown)
VH: EVQLVESGGGLVKPGGSLRLSCAASGFTFSRFALSWVRQAPGKGLEWVAAVSRGGDYTYYPDSMKGRFTISRDNAKNSLYLQMNSLRAEDTAVYYCARHLYGYGHYYAMDYWGQGTTVTVSS
VL: DIQMTQSPSSLSASVGDRVTITCKASQDVNTAVAWYQQKPGKAPKLLIYSASYRYTGVPSRFSGSGSGTDFTFTISSLQPEDIATYYCQQHYSTPYTFGGGTKVEIK
- IC50 (µg/mL), inhibition of the lectin pathway in 90% human serum (C4c deposition on mannan) [1]: 0.526 µg/mL

B13: 29C1 (H1L2) (antibody, V domains shown)
VH: EVQLVESGGGLVKPGGSLRLSCAASGFTFSRFALSWVRQAPGKGLEWVSAVSRGGDYTYYPDSMKGRFTISRDNAKNSLYLQMNSLRAEDTAVYYCARHLYGYGHYYAMDYWGQGTTVTVSS
VL: DIVMTQSPSSLSASVGDRVTITCKASQDVNTAVAWYQQKPGKSPKLLIYSASYRYTGVPSRFSGSGSGTDFTFTISSLQPEDIATYYCQQHYSTPYTFGGGTKVEIK
- IC50 (µg/mL), inhibition of the lectin pathway in 90% human serum (C4c deposition on mannan) [1]: 0.534 µg/mL

B14: 77H11 (antibody, V domains shown)
VH: DVQLQESGPGLVKPSQSLSLTCTVTGYSITSDYAWNWIRQFPGNKLEWMGYISYSGRTSYNPSLKSRISITRDTSKNQFFLQLNSVTTEDTATYYCAVLYALDYWGQGTSVTVSS
VL: DIVMTQSQKFMSTSVGDRVSVTCKASQNVDTNVAWYQQKPGQSPKALIYSASYRYSGVPDRFTGSGSGTDFTLTISDVQSEDLAEYFCQQYNSNPLTFGSGTKLEIK
- IC50 (µg/mL), inhibition of the lectin pathway in 1% human serum (C4c deposition on mannan) [10]: 0.63 µg/mL

B15: 67D2 (antibody, V domains shown)
VH: DVQLQESGPGLVKPSQSLSLTCTVTGYSITSDYAWNWIRQFPGNKLEWMGYISYSGRTSYNPSLKSRISITRDTSKNQFFLQLNSVTTEDTATYYCAILYAMNFWGQGTSVTVSS
VL: DIVMTQSQKFMSTSVGDRVSVTCKASQNVDTNVAWYQQKPGQSPKALIYSASYRFSGVPDRFTGSGSGTDFTLTISNVQSEDLAEYFCQQYNSNPLTFGSGTKLEIK
- IC50 (µg/mL), inhibition of the lectin pathway in 1% human serum (C4c deposition on mannan) [10]: 0.559 µg/mL

B16: 67E8 (antibody, V domains shown)
VH: DVQLQESGPGLVKPSQSLSLTCTVTGYSITSDYAWNWIRQFPGNKLEWMGYISYSGRTSYNPSLKSRISITRDTSKNQFFLQLNSVTTEDTATYYCAILYAMDYWGQGTSVTVSS
VL: DIVMTQSQKFMSTSVGDRVSVTCKASQNVDTNVAWYQQKPGQSPKALIYSASYRYSGVPDRFTGSGSGTDFTLTISNVQSEDLAEYFCQQYNSNPLTFGSGTKLEIK
- IC50 (µg/mL), inhibition of the lectin pathway in 1% human serum (C4c deposition on mannan) [10]: 0.738 µg/mL
